Results from patent US20170313764A1 (ACADEMISCH MEDISCH CENTRUM, published 2017).

T1: soluble E2-his6-sortase tag from HCV isolate AMS.2b.20876551.kloon21 (genotype 2b) (Hepatitis C virus genotype 2b)
T1 chain: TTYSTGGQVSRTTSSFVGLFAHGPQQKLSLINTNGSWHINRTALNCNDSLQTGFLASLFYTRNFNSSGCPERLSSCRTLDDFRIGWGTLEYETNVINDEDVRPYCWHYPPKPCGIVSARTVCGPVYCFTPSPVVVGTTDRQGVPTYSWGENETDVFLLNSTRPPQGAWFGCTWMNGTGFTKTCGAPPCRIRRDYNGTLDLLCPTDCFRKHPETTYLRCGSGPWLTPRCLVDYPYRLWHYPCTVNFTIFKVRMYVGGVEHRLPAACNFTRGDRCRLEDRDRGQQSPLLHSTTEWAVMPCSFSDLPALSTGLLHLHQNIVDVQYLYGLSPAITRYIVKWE

B1: AT12-010 (antibody, V domains shown)
VH: QLQLVQSGAEVKKPGSSVKVSCKASGGTFTSYAINWVRQVPGQGLEWMGEISPVFGTTHYAQKFQGRLKITADESADTAYMELSSLRSDDTAVYYCGRDRAPRLCSGGRCHSPPDHWGQGTLVTVSS
VL: DIQMTQSPSSVSASVGDRVTITCRASQGFGNWLAWYQQKPGRAPKLLIFGASTLQNGVPSRFSGSASGTDFTLTITSLQPEDFATYYCLQTNTFPYTFGQGTKVEIKR
B2: AT15-012 (antibody, V domains shown)
VH: QVQLVQSGAEVKKPGSSVKVSCKASGGNFNIFPITWVRQAPGQGLEWMGEIIPMLGTPEYAQKFQGRVTITADKSTGTAFMELSSLRSEDTAVYYCARTETTLPGTLFFVYYFHFWGQGTPVTVSS
VL: EIVMTQSPVTLSVSPGERAILSCRASQSVSSSLAWYQQKPGQAPRLLIYGASTRATGVPARFSGSGSGTEFTLTISSVQSEDYAIYFCQQYNDRPPWTFGQGTKVEIK
notes: also called AT15-12
B3: AT12-007 (antibody, V domains shown)
VH: QVQLEQSGAEVKKPGASVKVSCKVSGYTLTELSMHWVRQAPGKGLEWMGSFDPADGERLYAQKFQGRVIMSEDTSTDTAYMELSSLRSEDAAVYYCATAPRMTMFGVIMALDSWGQGTLVTVSS
VL: DIQMTQSPSTLSASLGDRVTITCRASQNINKYLAWYQQKPGKAPKLLIYKASNLQSGVPSRFSGSGSGTDFILTISSLQPDDFATYYCQQYTTYSAWTFGQGTNVDIKR
B4: AT15-009 (antibody, V domains shown)
VH: QVLLVQSGAEVKKPGSSVKVSCKASGGTFSTYAISWLRQAPGQGPEWMGGIVPMFGITNYAQHFQGRITITADKSTSTAYMELSSLGSEDTAVYFCARDLRSGGTFFSRGFDLWGPGTKVTVSS
VL: EIVLTQSPGTLSLSPGERATLSCRASQSVSSSFLTWYQQKPGQAPRLLIFDASTRATGVPDRFSGSGSGTDFTLTISRLEPEDFGVYYCQQFDSSPTFGGGTKVEIK

Key:
[1] = biological target: T1, soluble E2-his6-sortase tag from HCV …; test: SPR (IBIS MX96), antibody spotted on chip, soluble E2-his as analyte
[2] = biological target: T2, soluble E2-his6-sortase tag from HCV isolate H77 (genotype 1a) (Hepatitis C virus genotype 1a, strain …, UniProt P27958 384-717); test: as above
T2 construct: also called E2-his6-ST; E2 genotype 1a

[3] = biological target: E1E2 of HCV isolate AMS.1b.20877857 (genotype 1b) (Hepatitis C virus genotype 1b); test: cell-based or functional assay
[4] = biological target: E1E2 of HCV isolate H77 with single mutation V538A (Hepatitis C virus genotype 1a, strain …, UniProt P27958 192-383; P27958 384-746); test: ELISA, GNA-captured E1E2 lysate; EC50 wild type / EC50 mutant
[5] = biological target: E1E2 of HCV isolate H77 with single mutation N415A (Hepatitis C virus genotype 1a, strain …, UniProt P27958 192-383; P27958 384-746); test: as above
[6] = biological target: E1E2 of HCV isolate H77 with single mutation L441A (Hepatitis C virus genotype 1a, strain …, UniProt P27958 192-383; P27958 384-746); test: as above
[7] = biological target: E1E2 of HCV isolate H77 with single mutation N325A (in E1) (Hepatitis C virus genotype 1a, strain …, UniProt P27958 192-383; P27958 384-746); test: as above
[8] = biological target: E1E2 of HCV isolate H77 with single mutation T435A (Hepatitis C virus genotype 1a, strain …, UniProt P27958 192-383; P27958 384-746); test: as above
[9] = biological target: E1E2 of HCV isolate H77 with single mutation L413A (Hepatitis C virus genotype 1a, strain …, UniProt P27958 192-383; P27958 384-746); test: as above
[10] = biological target: E1E2 of HCV isolate H77 with single mutation T534A (Hepatitis C virus genotype 1a, strain …, UniProt P27958 192-383; P27958 384-746); test: as above
[11] = biological target: E1E2 of HCV isolate H77 with single mutation A439G (Hepatitis C virus genotype 1a, strain …, UniProt P27958 192-383; P27958 384-746); test: as above
[12] = biological target: E1E2 of HCV isolate H77 with single mutation P612A (Hepatitis C virus genotype 1a, strain …, UniProt P27958 192-383; P27958 384-746); test: as above
[13] = biological target: E1E2 of HCV isolate H77 with single mutation W529A (Hepatitis C virus genotype 1a, strain …, UniProt P27958 192-383; P27958 384-746); test: as above
[14] = biological target: E1E2 of HCV isolate H77 with single mutation G530A (Hepatitis C virus genotype 1a, strain …, UniProt P27958 192-383; P27958 384-746); test: as above
[15] = biological target: E1E2 of HCV isolate H77 with single mutation N448A (Hepatitis C virus genotype 1a, strain …, UniProt P27958 192-383; P27958 384-746); test: as above
[16] = biological target: E1E2 of HCV isolate H77 with single mutation W420A (Hepatitis C virus genotype 1a, strain …, UniProt P27958 192-383; P27958 384-746); test: as above
[17] = biological target: E1E2 of HCV isolate H77 with single mutation D533A (Hepatitis C virus genotype 1a, strain …, UniProt P27958 192-383; P27958 384-746); test: as above
[18] = biological target: E1E2 of HCV isolate H77 with single mutation N209A (in E1) (Hepatitis C virus genotype 1a, strain …, UniProt P27958 192-383; P27958 384-746); test: as above
[19] = biological target: E1E2 of HCV isolate H77 with single mutation G418A (Hepatitis C virus genotype 1a, strain …, UniProt P27958 192-383; P27958 384-746); test: as above

| Binder | Kd [1] | koff [1] | Kd [2] | koff [2] | IC50, HCVpp neutralization [3] | IC90, HCVpp neutralization [3] | relative binding, mutant vs wild type [4] | relative binding, mutant vs wild type [5] | relative binding, mutant vs wild type [6] | relative binding, mutant vs wild type [7] | relative binding, mutant vs wild type [8] | relative binding, mutant vs wild type [9] | relative binding, mutant vs wild type [10] | relative binding, mutant vs wild type [11] | relative binding, mutant vs wild type [12] | relative binding, mutant vs wild type [13] | relative binding, mutant vs wild type [14] | relative binding, mutant vs wild type [15] | relative binding, mutant vs wild type [16] | relative binding, mutant vs wild type [17] | other results |
| --- | --- | --- | --- | --- | --- | --- | --- | --- | --- | --- | --- | --- | --- | --- | --- | --- | --- | --- | --- | --- | --- |
| B1 | 22.8 nM | 0.00098 s⁻¹ | 39.3 nM | 0.00142 s⁻¹ | 0.47 µg/mL | 8.51 µg/mL | – | – | – | – | – | – | – | – | – | – | – | – | – | – | – |
| B2 | – | – | – | – | – | – | 103% | 101% | 83% | 94% | 99% | 132% | 95% | 94% | 81% | 77% | 48% | 129% | 111% | 82% | relative binding, mutant vs wild type [18]: 99%; relative binding, mutant vs wild type [19]: 124% |
| B3 | 3.8 nM | 0.00019 s⁻¹ | 44 nM | 0.00184 s⁻¹ | 0.04 µg/mL | 0.5 µg/mL | – | – | – | – | – | – | – | – | – | – | – | – | – | – | – |
| B4 | – | – | – | – | – | – | 126% | 116% | 57% | 103% | 101% | 112% | 93% | 97% | 94% | 82% | 52% | 113% | 102% | 94% | relative binding, mutant vs wild type [18]: 105%; relative binding, mutant vs wild type [19]: 112% |
